Test results taken from patent US20210388087A1 (Chugai, published 2021).
Positions count from the first letter of the chain named. Numbers in names are those of the source.

B1: H183/L072 VH Y58N (antibody, name in Kabat numbering, V domains shown)
VH: QVQLVESGGGLVQPGRSLRLSCAASGFTFSNAWMHWVRQAPGKGLEWVAQIKDKGNAYAANYAPSVKGRFTISRDDSKNSIYLQMNSLKTEDTAVYYCHYVHYASASTVLPAFGVDAWGQGTTVTVSS
VL: DIVMTQSPLSLPVTPGEPASISCQASQELVHMNRNTYLHWYQQKPGQAPRLLIYKVSNRFPGVPDRFSGSGSGTDFTLKISRVEAEDVGVYYCAQGTSVPFTFGQGTKLEIK
B2: H183/L072 VH Y58P (antibody, name in Kabat numbering, V domains shown)
VH: B1 VH with N61P
VL: B1 VL
B3: H183/L072 VH Y58Q (antibody, name in Kabat numbering, V domains shown)
VH: B1 VH with N61Q
VL: B1 VL
B4: H183/L072 VH Y58R (antibody, name in Kabat numbering, V domains shown)
VH: B1 VH with N61R
VL: B1 VL
B5: H183/L072 VH Y58S (antibody, name in Kabat numbering, V domains shown)
VH: B1 VH with N61S
VL: B1 VL
B6: H183/L072 VH Y58T (antibody, name in Kabat numbering, V domains shown)
VH: B1 VH with N61T
VL: B1 VL
B7: H183/L072 VH Y58V (antibody, name in Kabat numbering, V domains shown)
VH: B1 VH with N61V
VL: B1 VL
B8: H183/L072 VH Y58W (antibody, name in Kabat numbering, V domains shown)
VH: B1 VH with N61W
VL: B1 VL
B9: H183/L072 VH Y59A (antibody, name in Kabat numbering, V domains shown)
VH: B1 VH with N61Y, Y62A
VL: B1 VL
B10: H183/L072 VH Y59D (antibody, name in Kabat numbering, V domains shown)
VH: B1 VH with N61Y, Y62D
VL: B1 VL
B11: H183/L072 VH Y59E (antibody, name in Kabat numbering, V domains shown)
VH: B1 VH with N61Y, Y62E
VL: B1 VL
B12: H183/L072 VH Y59F (antibody, name in Kabat numbering, V domains shown)
VH: B1 VH with N61Y, Y62F
VL: B1 VL
B13: H183/L072 VH Y59G (antibody, name in Kabat numbering, V domains shown)
VH: B1 VH with N61Y, Y62G
VL: B1 VL
B14: H183/L072 VH Y59H (antibody, name in Kabat numbering, V domains shown)
VH: B1 VH with N61Y, Y62H
VL: B1 VL
B15: H183/L072 VH Y59I (antibody, name in Kabat numbering, V domains shown)
VH: B1 VH with N61Y, Y62I
VL: B1 VL
B16: H183/L072 VH Y59K (antibody, name in Kabat numbering, V domains shown)
VH: B1 VH with N61Y, Y62K
VL: B1 VL
B17: H183/L072 VH Y59L (antibody, name in Kabat numbering, V domains shown)
VH: B1 VH with N61Y, Y62L
VL: B1 VL
B18: H183/L072 VH Y59M (antibody, name in Kabat numbering, V domains shown)
VH: B1 VH with N61Y, Y62M
VL: B1 VL
B19: H183/L072 VH Y59N (antibody, name in Kabat numbering, V domains shown)
VH: B1 VH with N61Y, Y62N
VL: B1 VL
B20: H183/L072 VH Y59P (antibody, name in Kabat numbering, V domains shown)
VH: B1 VH with N61Y, Y62P
VL: B1 VL
B21: H183/L072 VH Y59Q (antibody, name in Kabat numbering, V domains shown)
VH: B1 VH with N61Y, Y62Q
VL: B1 VL
B22: H183/L072 VH Y59R (antibody, name in Kabat numbering, V domains shown)
VH: B1 VH with N61Y, Y62R
VL: B1 VL
B23: H183/L072 VH Y59S (antibody, name in Kabat numbering, V domains shown)
VH: B1 VH with N61Y, Y62S
VL: B1 VL
B24: H183/L072 VH Y59T (antibody, name in Kabat numbering, V domains shown)
VH: B1 VH with N61Y, Y62T
VL: B1 VL
B25: H183/L072 VH Y59V (antibody, name in Kabat numbering, V domains shown)
VH: B1 VH with N61Y, Y62V
VL: B1 VL
B26: H183/L072 VH Y59W (antibody, name in Kabat numbering, V domains shown)
VH: B1 VH with N61Y, Y62W
VL: B1 VL
B27: H183/L072 VH Y94A (antibody, name in Kabat numbering, V domains shown)
VH: B1 VH with N61Y, Y100A
VL: B1 VL
B28: H183/L072 VH Y94I (antibody, name in Kabat numbering, V domains shown)
VH: B1 VH with N61Y, Y100I
VL: B1 VL
B29: H183/L072 VH Y94L (antibody, name in Kabat numbering, V domains shown)
VH: B1 VH with N61Y, Y100L
VL: B1 VL
B30: H183/L072 VH Y94M (antibody, name in Kabat numbering, V domains shown)
VH: B1 VH with N61Y, Y100M
VL: B1 VL
B31: H183/L072 VH Y94P (antibody, name in Kabat numbering, V domains shown)
VH: B1 VH with N61Y, Y100P
VL: B1 VL
B32: H183/L072 VH Y97A (antibody, name in Kabat numbering, V domains shown)
VH: B1 VH with N61Y, Y103A
VL: B1 VL
B33: H183/L072 VH Y97I (antibody, name in Kabat numbering, V domains shown)
VH: B1 VH with N61Y, Y103I
VL: B1 VL
B34: H183/L072 VH Y97L (antibody, name in Kabat numbering, V domains shown)
VH: B1 VH with N61Y, Y103L
VL: B1 VL
B35: H183/L072 VH Y97M (antibody, name in Kabat numbering, V domains shown)
VH: B1 VH with N61Y, Y103M
VL: B1 VL
B36: H183/L072 VH Y97P (antibody, name in Kabat numbering, V domains shown)
VH: B1 VH with N61Y, Y103P
VL: B1 VL
B37: H183/L072 VL S26A (antibody, name in Kabat numbering, V domains shown)
VH: B1 VH with N61Y
VL: B1 VL with S26A
notes: Dual-Ig
B38: H183/L072 VL A25G (antibody, name in Kabat numbering, V domains shown)
VH: B1 VH with N61Y
VL: B1 VL with A25G
notes: Dual-Ig
B39: H183/L072 VL A25I (antibody, name in Kabat numbering, V domains shown)
VH: B1 VH with N61Y
VL: B1 VL with A25I
notes: Dual-Ig
B40: H183/L072 VL A25L (antibody, name in Kabat numbering, V domains shown)
VH: B1 VH with N61Y
VL: B1 VL with A25L
notes: Dual-Ig
B41: H183/L072 VL A25M (antibody, name in Kabat numbering, V domains shown)
VH: B1 VH with N61Y
VL: B1 VL with A25M
notes: Dual-Ig
B42: H183/L072 VL A25N (antibody, name in Kabat numbering, V domains shown)
VH: B1 VH with N61Y
VL: B1 VL with A25N
notes: Dual-Ig
B43: H183/L072 VL A25P (antibody, name in Kabat numbering, V domains shown)
VH: B1 VH with N61Y
VL: B1 VL with A25P
notes: Dual-Ig
B44: H183/L072 VL A25Q (antibody, name in Kabat numbering, V domains shown)
VH: B1 VH with N61Y
VL: B1 VL with A25Q
notes: Dual-Ig

Molecular target: T1, Human CD3eg linker (human)
T1 construct: Single chain: epsilon and gamma subunits of human CD3 joined by a 29-mer linker, Flag-tag at the C-terminus; also called recombinant human CD3
T1 chain: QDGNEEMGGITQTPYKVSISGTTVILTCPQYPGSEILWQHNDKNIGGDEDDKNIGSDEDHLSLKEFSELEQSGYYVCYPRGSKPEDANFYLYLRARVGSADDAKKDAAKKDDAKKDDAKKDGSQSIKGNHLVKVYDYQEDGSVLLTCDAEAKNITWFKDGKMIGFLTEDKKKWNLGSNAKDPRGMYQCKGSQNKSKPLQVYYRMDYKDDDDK
Test: Biacore SPR, vs template H183/L072

Binder	fold change of affinity
B1	0.5 fold
B2	0.5 fold
B3	0.3 fold
B4	0.5 fold
B5	0.4 fold
B6	0.2 fold
B7	0.3 fold
B8	0 fold
B9	1 fold
B10	1.1 fold
B11	1.1 fold
B12	0.6 fold
B13	1.1 fold
B14	1.4 fold
B15	0.9 fold
B16	1.3 fold
B17	1 fold
B18	1 fold

Binder	fold change of affinity
B19	1.2 fold
B20	0.7 fold
B21	1.1 fold
B22	1.3 fold
B23	1.1 fold
B24	1.2 fold
B25	1.2 fold
B26	0.6 fold
B27	0.4 fold
B28	0 fold
B29	0.8 fold
B30	0 fold
B31	0 fold
B32	0 fold
B33	0 fold
B34	0 fold
B35	0 fold
B36	0 fold

Molecular target: T2, Human CD137 ECD (human)
T2 construct: entry includes C-terminal His-tag and biotin acceptor peptide; also called human CD137 extracellular domain; 4-1BB
Test: Biacore SPR, vs parent H183/L072

T2 sequence (chain, as listed by the source limits assumed): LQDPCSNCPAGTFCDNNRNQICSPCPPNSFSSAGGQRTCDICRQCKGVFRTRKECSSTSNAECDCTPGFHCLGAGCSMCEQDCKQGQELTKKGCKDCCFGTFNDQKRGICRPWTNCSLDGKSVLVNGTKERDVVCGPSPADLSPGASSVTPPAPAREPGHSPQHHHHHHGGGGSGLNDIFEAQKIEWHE

Binder	fold change of affinity
B37	0.8 fold
B38	0.7 fold
B39	0.2 fold
B40	0.1 fold
B41	0.1 fold
B42	0.2 fold
B43	1.4 fold
B44	0.1 fold
